Data on 36 sequences can be found in the supplement of paper PMC10567573.

The data set can be described thus: protein stability index of a GFP-peptide fusion (GPS, HEK-293T) (PSI 1-6); higher = more stable. As to conditions: c terminus: a fixed tail appended.

± gives the standard deviation.
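Further: 24-mer peptide tiles fused after GFP, lentivirally expressed, FACS-sorted into six equal bins by GFP/DsRed ratio, decoded by Illumina sequencing, PSI is the read-weighted mean bin number.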

Turning to PELMEHTEAESEQEGSSGMELSWG [TEX19], the protein stability index reads like this: (treatment: DMSO) 5.4 ± 0.32; (treatment: MLN4924 1 uM, 8 h) 5.32 ± 0.35.
On the same counts, the results for PELSYRVCVGSDVTSIHKYMVRRY [MYORG] are 2.31 ± 0.14 and 2.27 ± 0.24.
On the same counts, the results for PENQEYFEKHRWPPVWYLKEEDHY [RHOBTB2] are 3.42 ± 0.23 and 3.57 ± 0.41.
On the same counts, the results for PETKQRKLSPLRLSVSNNQEPDFI [KMT2E] are 4.16 ± 0.24 and 4.38 ± 0.32.
PFGILSPNVLCSMSGKSPVESSLN [FBXO34]: the protein stability index (treatment: DMSO) came out at 2.88 ± 0.33 and the protein stability index (treatment: MLN4924 1 uM, 8 h) amounted to 2.64 ± 0.37.
On the same counts, the results for PFIVTLEGNALQGPILQKDYVQLE [ZNF449] are 2.46 ± 0.18 and 2.59 ± 0.31.
On the same counts, the results for PKKDLEDGEVPQHAGKKGKLSEHL [BRD3] are 5.18 ± 0.26 and 5.3 ± 0.26.
On the same counts, the results for PKKSAPSAVARSNSWMGSQGPMSQ [RBMY1A1] are 4.08 ± 0.13 and 4.28 ± 0.2.
For PKLFCPKNRSFDIDAIYSVIDDAK [PLD5], the protein stability index amounted to 3 ± 0.62 (treatment: DMSO) and 2.89 ± 0.27 (treatment: MLN4924 1 uM, 8 h).
PKRRWLFWNSPSSPSSSAASSSSP [RHOBTB2]: the protein stability index runs as follows: (treatment: DMSO) 3.57 ± 0.2; (treatment: MLN4924 1 uM, 8 h) 3.75 ± 0.18.
On the same counts, the results for PLQNQKILKRTGQRYEHGRTLKSY [ZNF649] are 2.89 ± 0.45 and 3.53 ± 0.41.
On the same counts, the results for PLSLYGQLLWREFFYTAATNNPRF [CRY1] are 2.79 ± 0.46 and 2.5 ± 0.72.
With PNLSPHAPWNYHYHCPGSPDHQVP [TRAF3IP2], the protein stability index is, setting by setting: (treatment: DMSO) 3.29 ± 0.34; (treatment: MLN4924 1 uM, 8 h) 3.54 ± 0.32.
In the same order, the values of PPPDVTQLTPPSHDLTDNIFPRLV [ANKRD17] are 4.04 ± 0.34 and 4.06 ± 0.16.
Turning to PPSNFLEIDIFNPQTVGVGRARFT [SNX12], the protein stability index is, setting by setting: (treatment: DMSO) 3.27 ± 0.34; (treatment: MLN4924 1 uM, 8 h) 3.27 ± 0.21.
With PQPNYADTLISQESCEKNDPLSLL [PCDHGA10], the protein stability index is, setting by setting: (treatment: DMSO) 4.83 ± 0.11; (treatment: MLN4924 1 uM, 8 h) 4.85 ± 0.17.
In the same order, the values of PQSPDFLDITNPKAVLENALRNFA [UFD1] are 2.86 ± 0.35 and 2.55 ± 0.57.
In the same order, the values of PQYEFKEAAGSFTSSLAQPGAYYP [IRX6] are 3.37 ± 0.19 and 3.36 ± 0.24.
In the same order, the values of PRYITDVIDAEPFIRCSLQCRDLV [KLHL12] are 2.25 ± 0.57 and 2.26 ± 0.66.
For the sequence PSAALTTMQLFSKQNPSRQEVTKL [FBXO28], the protein stability index turned out to be 4.16 ± 0.37 (treatment: DMSO) and 4.37 ± 0.23 (treatment: MLN4924 1 uM, 8 h).
PSATRAKPGPQDTVERPFYDLWAS [NOP53] yielded a protein stability index (treatment: DMSO) of 3.08 ± 0.37 and a protein stability index (treatment: MLN4924 1 uM, 8 h) of 3.24 ± 0.37.
Sequence PSCQETRDYAPPSRGYAYRDNGHS [RBMY1A1] had a protein stability index (treatment: DMSO) of 4.18 ± 0.18 and a protein stability index (treatment: MLN4924 1 uM, 8 h) of 4.21 ± 0.21.
In the same order, the values of PSELRDLVTQQLPHLMPSNCGLEE [S100A14] are 2.71 ± 0.22 and 3.02 ± 0.18.
On to PSSPGRFTKETTQKNFNNLYGTKG [TRIM29], for which the protein stability index is 4.2 ± 0.27 (treatment: DMSO) and 4.37 ± 0.085 (treatment: MLN4924 1 uM, 8 h).
In the same order, the values of PSVRKKAGSFSRRLIKRFSFKSKP [C2CD2L] are 3.34 ± 0.56 and 3.35 ± 0.31.
In the same order, the values of PTEQVNELVALIPHSDQRLRPQRT [TMEM106C] are 4.63 ± 0.12 and 4.75 ± 0.1.
Turning to PTRCLPGHKEEEDGEGAGPGEQGG [ESRRA], the protein stability index is 5.68 ± 0.3 (treatment: DMSO) and 5.38 ± 0.26 (treatment: MLN4924 1 uM, 8 h).
As for PTVIRNVGLGTCSMFSRVGGIIAP [SLC22A15], the protein stability index is, setting by setting: (treatment: DMSO) 2.34 ± 0.3; (treatment: MLN4924 1 uM, 8 h) 2.23 ± 0.47.
On the same counts, the results for PTYKVMYKIVTAREWRCCPGHSGV [EMID1] are 2.5 ± 0.57 and 2.89 ± 0.75.
Consider PVAAQFTSEGTTLSGVDLELVGSG [FCHO1], for which the protein stability index was determined as 4.54 ± 0.17 (treatment: DMSO) and 4.57 ± 0.24 (treatment: MLN4924 1 uM, 8 h).
In the same order, the values of PVLRPMDLMVEATPRRVFANAHTY [PPP2R2B] are 2.68 ± 0.17 and 2.82 ± 0.075.
Consider PYDGNSSDPENWDRKLHSRPRKLY [BTBD10], for which the protein stability index by setting is: (treatment: DMSO) 3.35 ± 0.24; (treatment: MLN4924 1 uM, 8 h) 3.41 ± 0.34.
As to PYVCHAELNAIMNKNSTDVKGCSM [DCTD], the protein stability index (treatment: DMSO) was 3.41 ± 0.22 and the protein stability index (treatment: MLN4924 1 uM, 8 h) was determined as 3.43 ± 0.33.
In the same order, the values of QAALQKQQEVVVAGSSLPTSSKVN [ACBD3] are 5.04 ± 0.18 and 5.03 ± 0.063.
With QAALRAARLRHQELFRLRGIKAQV [NOP53], the protein stability index (treatment: DMSO) was determined as 2.4 ± 0.19 and the protein stability index (treatment: MLN4924 1 uM, 8 h) amounted to 2.86 ± 0.57.
On the same counts, the results for QAGDYSMRVDLRAGDEAVFAQYDS [TNXB] are 4.43 ± 0.42 and 4.2 ± 0.096.
